B1: NIN_(1–87), first EF-hand pair of Ninein (domain or fragment, human, UniProt Q8N4C6-1 1-87, looked up)
chain: MDEVEQDQHEARLKELFDSFDTTGTGSLGQEELTDLCHMLSLEEVAPVLQQTLLQDNLLGRVHFDQFKEALILILSRTLSNEEHFQE
notes: NIN (Ninein), human, UniProt Q8N4C6-1, residues 1-87 (EF-hand pair); Cloned into pMAL-c2X
B2: MBP-CRACR2a_(47–122), EF-hand pair of calcium release-activated calcium channel regulator 2A (domain or fragment, human, UniProt Q9BSW2-1 47-122, looked up)
chain: GQLVMLRKAQEFFQTCDAEGKGFIARKDMQRLHKELPLSLEELEDVFDALDADGNGYLTPQEFTTGFSHFFFSQNN
notes: Cloned into pMAL-c2X; the MBP tag was not removed for the ITC experiments; also called Ca^2+-CRACR2a; not shown: MBP, N-terminal, kept
B3: FIP3_(206–270), EF-hand pair of Rab11 family-interacting protein 3 (domain or fragment, human, UniProt O75154-1 206-270, looked up)
chain: RLRAVFDALDGDGDGFVRIEDFIQFATVYGAEQVKDLTKYLDPSGLGVISFEDFYQGITAIRNGD
notes: Cloned into pMAL-c2X

Key:
Conditions in all cases: both partners purified
[1] = biological target: T1, MBP-LIC1FL, full-length dynein light intermediate chain-1 (human, UniProt Q9Y6G9 1-523); assay: ITC; EF-hand pairs titrated into MBP-LIC1FL; 20 mM HEPES (pH 7.5), 100 mM NaCl, 0.5 mM TCEP, 5 mM CaCl2; 20 or 30 °C
T1 construct: cytoplasmic dynein-1 light intermediate chain-1 (LIC1), human, full length; also called MBP-LICFL; full-length LIC1
T1 sequence (Q9Y6G9 whole entry): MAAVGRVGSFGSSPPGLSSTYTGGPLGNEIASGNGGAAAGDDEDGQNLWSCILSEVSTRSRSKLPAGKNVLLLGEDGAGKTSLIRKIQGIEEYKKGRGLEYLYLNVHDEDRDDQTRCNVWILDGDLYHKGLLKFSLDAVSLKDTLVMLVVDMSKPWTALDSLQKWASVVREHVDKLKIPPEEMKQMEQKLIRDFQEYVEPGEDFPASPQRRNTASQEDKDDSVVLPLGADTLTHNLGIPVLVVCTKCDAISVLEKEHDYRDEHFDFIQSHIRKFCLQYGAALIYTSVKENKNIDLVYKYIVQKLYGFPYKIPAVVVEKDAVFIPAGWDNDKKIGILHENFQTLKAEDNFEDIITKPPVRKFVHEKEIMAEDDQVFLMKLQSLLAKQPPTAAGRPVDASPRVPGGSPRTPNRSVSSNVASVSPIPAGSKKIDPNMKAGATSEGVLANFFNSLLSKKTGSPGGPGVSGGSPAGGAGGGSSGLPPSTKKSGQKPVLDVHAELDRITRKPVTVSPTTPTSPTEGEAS

[2] = biological target: B2; assay: ITC; EF-hand pairs titrated into LIC1_(433–458); 20 mM HEPES (pH 7.5), 100 mM NaCl, 0.5 mM TCEP; 5 mM CaCl2 or 5 mM EGTA as indicated in the figure; 20 or 30 °C
[3] = biological target: B3; assay: as above
[4] = biological target: B1; assay: as above

Binder	Kd [1] [µM]	stoichiometry N [1]	Kd [2] [µM]	Kd [3] [µM]	Kd [4] [µM]
B1	~12	~1	–	–	–
B2	~3.6	~1	–	–	–
NMKAGATSEGVLANFFNSLLSKKTGS (peptide, UniProt Q9Y6G9 433-458, looked up, Its concentration was determined with fluorescamine-labeled peptide; also called LIC1 helix; source: peptide after reverse-phase purification) [LIC1_(433–458), amphipathic helix of the dynein light intermediate chain-1]	–	–	~1.4	~2	~5.4
B3	~6.1	~1	–	–	–

Source: PMC7655957, “A tunable LIC1-adaptor interaction modulates dynein activity in a cargo-specific manner” (Nature Communications, 2020)
